Among the data in article PMC11464976, “Insights into structure and activity of a UDP-GlcNAc 2-epimerase involved in secondary cell wall polymer biosynthesis in Paenibacillus alvei” (Frontiers in Molecular Biosciences, 2024) are Km, kcat and kcat/Km values, retold here.

Holding throughout (experiment): purified protein
What all share (format): biochemical, Paenibacillus alvei

Data set [1] deals with T1, CC(=O)N[C@H]1[C@@H](OP(=O)(O)OP(=O)(O)OC[C@H]2O[C@@H](n3ccc(=O)[nH]c3=O)[C@H](O)[C@@H]2O)O[C@H](CO)[C@@H](O)[C@@H]1O.
T1 construct: amino acids 1-384, Leu-Glu linker and C-terminal His6 tag, pET22b(+), E. coli BL21(DE3), Ni-NTA
The following applies: forward reaction, 10 mM sodium phosphate pH 8.0, 50 mM MgCl2, 30 °C, apparent constant.

Substrate in data set [2]: CC(=O)N[C@@H]1[C@@H](OP(=O)(O)OP(=O)(O)OC[C@H]2O[C@@H](n3ccc(=O)[nH]c3=O)[C@H](O)[C@@H]2O)O[C@H](CO)[C@@H](O)[C@@H]1O
The following applies: reverse reaction, 10 mM sodium phosphate pH 8.0, 50 mM MgCl2, 30 °C, 45 min, apparent constant.

Substrate in data set [3]: CC(=O)N[C@H]1[C@@H](OP(=O)(O)OP(=O)(O)OC[C@H]2O[C@@H](n3ccc(=O)[nH]c3=O)[C@H](O)[C@@H]2O)O[C@H](CO)[C@@H](O)[C@@H]1O
The following applies: forward reaction, 10 mM sodium phosphate pH 8.0, 50 mM MgCl2, 30 °C, 5 min, apparent constant.

The mark [4] stands for this setting: kcat 0.05 in text fits printed kcat/Km 0.03, table prints 0.53.

What is called Km is the substrate concentration at which the rate is half of its maximum. Broadly, the kcat is the maximal rate divided by the concentration of active sites. As usually defined, the kcat/Km is the second-order rate constant that governs catalysis at low substrate concentration.

“PaMnaA (MnaA.His6) (Paenibacillus alvei; H241A)”: in data set [1], the Michaelis constant (Km) worked out at 3.27 mM, the kcat worked out at 0.53 s⁻¹ and the kcat/Km is 160 M⁻¹ s⁻¹.

“PaMnaA (MnaA.His6) (Paenibacillus alvei; Q42A)”: in data set [1] (setting [4]), the Michaelis constant (Km) was found to be 1.61 mM, the kcat is 0.05 s⁻¹ and the kcat/Km was 30 M⁻¹ s⁻¹.

Consider “PaMnaA (MnaA.His6) (Paenibacillus alvei; Q69A)”, for which, in data set [1], the Km was determined as 8.92 mM, the kcat was 37.9 s⁻¹ and the kcat/Km turned out to be 4250 M⁻¹ s⁻¹.

B1: PaMnaA (MnaA.His6) (Paenibacillus alvei) (protein)
chain: MSKVKVMTVFGVRPEAIKMAPLILELQKHPEHIESIVCVTAQHRQMLDQVLDVFNIKPDYDLDIMQARQTLNDISVRVLQGLEPVLQEAKPDIVLVHGDTLTTFLASYAAFMQQIKVGHVEAGLRTWNKLSPFPEEMNRQLTGVLADLHFAPTDWSASNLRKENKQDASIFVTGNTVTDVFQYTVRSDYKHEVLDWAQGKRLVLMTAHRRESQGEPHRNIFRAVRRIADEFEDIAIVYPVHPSPAVREPAHEMLGDHPRIKLIDPLDVVDLHNFYPHTHLILTDSGGLQEEAPSFGIPVLVLRETTERPEGIDAGTLELVGTDEEKVYARAKALLSDETTYARMSKAANPYGDGKASQRIVSAILHSFGVLEERPEPFHTKFTN
notes: amino acids 1-384, Leu-Glu linker and C-terminal His6 tag, pET22b(+), E. coli BL21(DE3), Ni-NTA
On to B1, for which, in the data set “purified protein [2]”, the Km is 2.41 mM and the kcat was 6.02 s⁻¹. Moreover, in the data set “purified protein [3]”, the Km is recorded as 3.91 mM, the kcat is 33.4 s⁻¹ and the specificity constant (kcat/Km) worked out at 8560 M⁻¹ s⁻¹.
